Tests used:
[1] = biological target: hsEGFR (human (printed only as 'hs')) (UniProt P00533); assay: two-colour flow cytometry after 48 hours, b-hsEGFR/SA-PE and Fc-specific AlexaFluor 647
[2] = biological target: hsEGFR (human (printed only as 'hs')) (UniProt P00533); assay: two-colour flow cytometry after 24 hours, b-hsEGFR/SA-PE and Fc-specific AlexaFluor 647

percent of cells within the marker region M1 [1]: 43.4% | percent of cells within the marker region M1 [2]: 36.4%
Substance: antibody matuzumab (IgG molecule) secreted by yeast and displayed through the ZZ domain
